Measured values: patent publication US20200405610A1, “COSMETIC COMPOSITION” (Shaanxi Huikang Bio-Tech Co., Ltd., priority 2016, published 2020)

Experiment: Isoelectric point of the pentapeptide
Format: physicochemical

“Tyr-Gly-Phe-Gly-Gly (YGFGG; OGP(10-14); listed as Homo sapiens)” gave an isoelectric point of 5.52.
